Laboratory results from the supplement of paper PMC9170038.

Test system: MS2 coat protein
Assay: apparent KD of MS2 coat protein; designed switch direction (-1 OFF switch, 1 ON switch): 1; higher = weaker reporter binding
How it was run: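 Transcription of designed RNA switches on Illumina chips was done by stalled E. coli RNA polymerase. SNAP-549-labelled MS2 coat protein was then titrated in doubling steps from 0.7 or 1.5 nM to 3 µM, with steps of 0.8–1.5 h at the lowest and 10–20 min at the highest concentration. The per-design median over clusters of curve-fitted normalised fluorescence is reported as apparent KD.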

[1] = input ligand: microRNA oligo, concentration not stated
[2] = Eterna round: R95, input ligand: FMN 200 uM
[3] = Eterna round: R95, input ligand: microRNA oligo, concentration not stated
[4] = Eterna round: R95, input ligand: none

| Sequence | apparent KD of MS2 coat protein [1] [nM] | apparent KD of MS2 coat protein [2] [nM] | apparent KD of MS2 coat protein [3] [nM] | apparent KD of MS2 coat protein [4] [nM] | apparent KD of MS2 coat protein (input ligand: FMN 200 uM) [nM] | apparent KD of MS2 coat protein (input ligand: none) [nM] |
| --- | --- | --- | --- | --- | --- | --- |
| GUGGUCAGACAUGAGGAUCACCCAUGUGGAAUAAAUAAGGAGAAGGAUAUCGAAUAUAGGAUAUACGAGAAGGUCUGGUUGGUG (Eterna round: R96, puzzle: Same State NG 3) | 75.2 | – | – | – | – | – |
| GAGAGAGGAAGCGAGGAUAUCGUGUUGAGUACAUGAGGAUCACCCAUGUUGUAGGUAGAGGUAGGCGAGAAGGCGCAGGAGAGGG [JR_SS2_Sub099] (puzzle: Same State 2) | – | 43 | 43.2 | 51 | – | – |
| UGCUAUUGUAUAUUGGUGCAAGCUUUUUGACAUGAGGAUCACCCAUGUACUCGUCAUUAGCGCAGUCCGUAGACUGC (puzzle: Sensor for hsa-mir-208a) | – | 74.2 | 15.7 | 79 | – | – |
| AGUCCUGAAUAAAUUAAACAGAGACAUGUACAUGAGGAUCACCCAUGUCAUGUGCAAGUUUUAUGCUCGUCAUAUAA [Sensorship 18 - Jieux - Sensor for hsa-mir-208a] (puzzle: Sensor for hsa-mir-208a) | – | 13 | 8.35 | 12.8 | – | – |
| AUGCAGCCACCACAGGAUAUACGUGGAUCGACAUGAGGAUCACCCAUGUAUAUCCUAAUAAUUGCGUAGAAGGGUGGUCGGCUGG [Anatxeage] (puzzle: Same State 2) | – | – | 362 | – | – | – |
| ACAUGAAAUUGAGGAUAUUUUGUACCUACAUGUGACAUGAGGAUCACCCAUGUGGUAAGUAUGAGAAAGAAGGCAAAGAUAUGU [Equivalence 11 - Jieux - Same State NG 2] (Eterna round: R96, puzzle: Same State NG 2) | 43.3 | – | – | – | 26.6 | 51 |
| CGAGCCGGCACUGAGGAUAUUCAUAUUUAAACAUGAGGAUCACCCAUGUAGGCCAGAAGGCCUUGGGAGAAGGCAGGUCGGCUCC [salish99_ss2_r3_080] (puzzle: Same State 2) | – | 22.6 | 279 | 480 | – | – |
| GCGAGCGUACUUGCUACAUGAGGAUCACCCAUGUUCGUUGGACAGGAUAUGGUACCGUUUCGGUACCAGAAGGGUUCAUCAUGA [JL SSNG3 3.76] (Eterna round: R96, puzzle: Same State NG 3) | 147 | – | – | – | 75.7 | 241 |
| CAAUAAAACACAGGAUAUACAGCCAGCCAGGCUGUAGAAGGGUGAGACAUGAGGAUCACCCAUGUACAAGUCGUAGGACUUGGG [Edlaticeen] (Eterna round: R96, puzzle: Same State NG 1) | 47.7 | – | – | – | 1030 | 163 |
| AAAAGAACCACAGGAUAUACACUCCUAGCGGCGGUAGAAGGGUGGAACAUGAGGAUCACCCAUGUACGUCUGGAAUCAGACUAA [Radianis] (Eterna round: R96, puzzle: Same State NG 1) | 233 | – | – | – | 267 | 857 |
| UAGAGAGGAAGCGAGGAUAUCGUGGGAGGGACAUGAGGAUCACCCAUGUAUGAUGUUGAGAGGAACGAGAAGGCGCAGGAAAGUA [JR_SS2_Sub077] (puzzle: Same State 2) | – | 151 | 137 | 349 | – | – |
| GCUCGUAUGAUGACCGACAUGAGGAUCACCCAUGUGUGUUGGUAGGAUAUCUAUAUUAAGGAUAUAGAGAAGGGCCGAACGAGC [SameState NG3 #16] (Eterna round: R96, puzzle: Same State NG 3) | 23.6 | – | – | – | 22.4 | 30.6 |
| AAUUAAGAUCAAGGAUAUCACGUCGUUUAGACGUGAGAAGGUGAUCAUAACAUGAGGAUCACCCAUGUAUUACAUGAAUUAAUU [SSNG1/2-B3] (Eterna round: R96, puzzle: Same State NG 1) | 404 | – | – | – | 72.4 | 370 |
| AGUCCAGCCUAAGCUGGACAAAAGCAUGUACAUGAGGAUCACCCAUGUUCAUGUACAAGCUUUUUGCAAGUCAAAAU [Mat - hsa-mir-208a - Mod of JL - 79] (Eterna round: R96, puzzle: Sensor for hsa-mir-208a) | 19.1 | – | – | – | 837 | 725 |
| GGAGCCGGCCUAGGAUAUUUCAUAAGAAAACAUGAGGAUCACCCAUGUAGGCCAGAAGGCCUUGGGAAGAAGGAGGUCGGCUCC [Loop Effect - G26] (Eterna round: R96, puzzle: Same State NG 2) | 19.7 | – | – | – | 11.2 | 35.1 |
| UUAUAACAUGAGGAUCACCCAUGUCAACAAAGUCGAGGAUAUGGGCAAGAAUUGAGAGAACCAGAAGGCGAAUAUU [Mat - Same State 1 - Mod of UCT - D31] (puzzle: Same State 1) | – | 78.4 | 131 | 148 | – | – |

| Sequence | apparent KD of MS2 coat protein [1] [nM] | apparent KD of MS2 coat protein [2] [nM] | apparent KD of MS2 coat protein [3] [nM] | apparent KD of MS2 coat protein [4] [nM] | apparent KD of MS2 coat protein (input ligand: FMN 200 uM) [nM] | apparent KD of MS2 coat protein (input ligand: none) [nM] |
| --- | --- | --- | --- | --- | --- | --- |
| GGAUAACAUGAGGAUCACCCAUGUCAACAAAGUCGAGGAUAUGGGCAAUUAUAAUUAGAACCAGAAGGCGAAUAGG [Mat - Same State 1 - Mod of UCT - D44] (puzzle: Same State 1) | – | 55.9 | 126 | 191 | – | – |
| AUUUUUAAUGCAGGAUAUGAUUAACAUGAGGAUCACCCAUGUGGUGUUGUGAGUAAGGAGAGUGAUCAGAAGGGCAUUUUUUUC [JMF's solution 91] (Eterna round: R96, puzzle: Same State NG 2) | 274 | – | – | – | 888 | 502 |
| GUGGUCAGACAUGAGGAUCACCCAUGUGGAAUAAAUAAGGACUAGGAUAUCGAAUAUAGGAUAUACGAGAAGGAGUGGUUGGUG (Eterna round: R96, puzzle: Same State NG 3) | 53.5 | – | – | – | 81.1 | 67.9 |
| AUUUUUAAUGCAGGAUAUGAUUAACAUGAGGAUCACCCAUGUGGUGUUGUGAGUAAGGAGAGUGAUCAGAAGGGCAUCUUUUCA [SS-NG2-LRO02] (Eterna round: R96, puzzle: Same State NG 2) | 216 | – | – | – | 679 | 372 |
| CCGAUUUAUGGAGGAUAUGGAGCCUUAUUGGCUCCAGAAGGUCAAUACAUGAGGAUCACCCAUGUGUCGGCGGUCAAUAGACCG [Eli NG1ss - 72] (Eterna round: R96, puzzle: Same State NG 1) | 44.2 | – | – | – | 61.7 | 128 |
| CCAACGUACAAUUUAGAUCUACAUGAGGAUCACCCAUGUACGGAGGAUAUCAGCUCGUUUAGAGCUGAGAAGGCCGAAUUAAUU [SSNG3/2-A3] (Eterna round: R96, puzzle: Same State NG 3) | 238 | – | – | – | – | – |
| AUUAAUAAUCGAGGAUAUCACGUCGAAUAGACGUGAGAAGGCGAUCAUAACAUGAGGAUCACCCAUGUAUUACAUGAAGUUAAU [SSNG1/4-B1] (Eterna round: R96, puzzle: Same State NG 1) | 20 | – | – | – | – | – |
| AGAUGUUAAUCAGGAUAUGGGCACAUGAGGAUCACCCAUGUAAAUUCGAUACUAUGUGGACACGUCUAGAAGGGAUGGCUAACA [SameState NG2 #83] (Eterna round: R96, puzzle: Same State NG 2) | 73.5 | – | – | – | 125 | 106 |
| GCUCGCACGAUGACCCACAUGAGGAUCACCCAUGUGUGUGGGUAGGAUAUCUAUAUUAAGGAUUUAGAGAAGGGCCGAGCGAGC [SameState NG3 #22] (Eterna round: R96, puzzle: Same State NG 3) | 419 | – | – | – | 450 | 578 |
| UGUUGUAUUACAGGAUAUCUAUUGUUUUAAUUUAGAGAAGGGUAUUCACAUGAGGAUCACCCAUGUAUAUACGAGGAAGUUGUG [JMF's solution 76] (Eterna round: R96, puzzle: Same State NG 1) | 40.6 | – | – | – | – | – |
| GGGAGAGGCGCAGGAUAUGGUGAGGAUCACCCACUAGAAGGGUGCACAUGAGAAUCGAACAUGAGGAUCACCCAUGUUCUGAGC (Eterna round: R96, puzzle: Same State NG 1) | 162 | – | – | – | 560 | 348 |
| GUAGAUAUAACGCAGGAUAUUCAAUGAGAGACAUGAGGAUCACCCAUGUGAGAGUGAGAUGAUAGGAAGAAGGGUGAGAGAGAUG [Altered State 2-8 - Jieux - Same State 2] (puzzle: Same State 2) | – | 107 | 124 | 122 | – | – |
| GGAAUAUUUACAGGAUAUGUUUUGUUAAGUCGAGCAGAAGGGUAGAUGUCUUACACGGUUUGUUACAUGAGGAUCACCCAUGUU [SameState NG1 #17] (Eterna round: R96, puzzle: Same State NG 1) | 86.6 | – | – | – | – | – |
| AAUAAACAUGAGGAUCACCCAUGUAAUAUAAAUGGAGGAUAUGCAAUUAUUAAUUAUUAAGUAGAAGGUCGAAUAA [Lollin - Epsilon 1] (Eterna round: R96, puzzle: Same State 1) | 67.5 | – | – | – | – | – |
| UCGGGCGUACUUGCUGACAUGAGGAUCACCCAUGUGAUUGGGCAGGAUAUGGUUCCGUUUCGGUUCCAGAAGGUCCUCGGUGCU [salish99_SSNG3_r04_315] (Eterna round: R96, puzzle: Same State NG 3) | 230 | – | – | – | 593 | 347 |
| AUUAAACAUGAGGAUCACCCAUGUCAACAAAGUCGAGGAUAUGGGCUAAUAAAAUAAGAACCAGAAGGCGAAUAAU [salish99_ss1_r3_062] (puzzle: Same State 1) | – | 26.8 | 185 | 211 | – | – |
